# Assay results from patent publication US20250163136A1 (FRAUNHOFER GESELLSCHAFT ZUR F RDERUNG DER ANGEWANDTEN …, published 2025).
# Numbered stars: 1 amine (or outer) side, 2 acyl side, 3 side chain; on linkers, the order of the positions; unused ones are H or OH. Square brackets hold non-standard residues; d marks the D form. * marks the point of attachment. Biotin = O=C1N[C@H]2[C@H](CS[C@H]2CCCCC(=O)*)N1; βAsp = O=C(O)[C@H](CC(=O)[*:2])N[*:1]; PEG = not defined here
# T1: isoD38-TTR(35-43)-PEG-Biotin (human, reading uncertain)
# T1 construct: KAAXDTWEP; also called isoaspartate-containing TTR(35-43)-peptide
# T1 peptide: {Biotin-PEG}-KAA[βAsp]DTWEP-NH2
# T2: TTR(35-43)-PEG-Biotin (human, reading uncertain)
# T2 construct: also called non-modified peptide TTR(35-43)
# T2 peptide: {Biotin-PEG}-KAADDTWEP-NH2
# B1: monoclonal antibody 2F2 (antibody, V domains shown)
# VH: DVQLVESGGGLVQPGGSRKLSCAASGFTFSSFAMHWVRQAPDKGLEWVAFISSGSNTIYYADTVKGRFTVSRDNPKNTLFLQMTSLRSEDTAMYYCASNSYYGMDYWGQGTSVTVSS
# VL: NIMMTQSPSSLAVSAGEKVTMSCKSSQSVLYSSNQKNYLAWYQQKPGQSPKLLIYWASTRESGVPDRFTGSGSGTDFTLTISSVQAEDLAVYYCHQYLSSRTFGAGTKLELKR
# notes: also called isoD38-TTR-specific antibody 2F2; TTR mAb 2F2
# B2: monoclonal antibody 4D4 (antibody, V domains shown)
# VH: QVQLQQSGAELMKPGASVKISCKAPGNTFSSRWIEWVKERPGHGLEWIGEIFPGNGNTNYNEKFKGKATFTADTSSNTAYIQFSSLASEDSGVYYCVSEDYWGQGTLVTVSS
# VL: DIQMTQSPASLSASVGETVTITCRTSGNIRNSLAWYRQKQGKSPQLLVFNGKTLADGVPSRFSGSGSGTQYSLKINSLQPEDLGTYYCQHFWNIPFTFGSGTKLEIKR
# notes: also called isoD38-TTR-specific antibody 4D4; TTR mAb 4D4
# How the values were obtained:
# [1] = target: T1, isoD38-TTR(35-43)-PEG-Biotin; assay: SPR, BIAcore 3000, 25 °C; antibody captured on goat anti-mouse IgG (CM5 chip), peptide injected (five consecutive injections, 2 nM to 512 nM)
# Procedure: (§1) Antibody binding kinetics to TTR(35-43)-PEG-Biotin (SEQ ID NO: 5) and isoD38-TTR(35-43)-PEG-Biotin (SEQ ID NO: 6) were analyzed by using SPR on a BIAcore 3000 device at 25° C. For this purpose, the surface of a CM5 sensor chip (Cytiva) was modified with a goat anti-mouse antibody using NHS/EDC chemistry. To immobilize the anti-mouse IgG, the carboxymethylated dextran surface of the sensor chip was activated by mixing 0.1 M N-hydroxysuccinimide (NHS) with 0.4 M N-ethyl-N′-(dimethylaminopropyl) carbodiimide hydrochloride (EDC) 1:1. EDC/NHS was applied to the sensor chip with a flow rate of 20 μL/min for 7 minutes. Goat anti-mouse IgG was diluted to 50 μg/mL in 10 mM sodium acetate, pH 5.5, and injected for 2×4 minutes contact time with a flow rate of 30 μL/min. Deactivation was done by applying 1 M ethanolamine pH 8.5 with a flow rate of 10 μL/min for 2×7 minutes contact time. About 20000 RU of the goat anti-mouse antibody were immobilized onto the chip surface.
# TTR(35-43)-PEG-Biotin [2] = target: T2, TTR(35-43)-PEG-Biotin; assay: SPR, BIAcore 3000, 25 °C; antibody captured on goat anti-mouse IgG (CM5 chip), peptide injected (five consecutive injections, 512 nM to 131 µM)
# Procedure: as §1
# [3] = target: T3, freshly dissolved Aβ(1-42); assay: dot blot
# T3 construct: Dot blot lanes 8 and 9 (with m12); also called monomeric peptides of Aβ
# T3 sequence (peptide, as listed by the source): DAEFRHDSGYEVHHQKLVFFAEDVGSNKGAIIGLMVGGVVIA
# Procedure: (§2) 0.5 μg of recombinantly expressed TTR proteins (TTRwt (SEQ ID NO: 1), TTR-V30M (SEQ ID NO: 7), or TTR-V122I (SEQ ID NO: 8)), ATTR fibrils or 0.5 μg of either freshly dissolved Aβ(1-42) (SEQ ID NO: 9) or aggregated Aβ(1-42) with confirmed isoAsp-content (SEQ ID NO: 10) were spotted on nitrocellulose membranes. Membranes were blocked for 1 hour in blocking solution (5% (w/v) milk powder in TBS+0.05% (v/v) Tween-20 (Carl Roth)). […] Alkaline phosphatase-conjugated, anti-mouse or rabbit IgG antibodies (abeam) in combination with chromogenic substrates BCIP and NBT (Carl Roth) were subsequently used for detection.
# [4] = target: T4, aggregated Aβ(1-42) with confirmed isoAsp-content (isoD7-Aβ(1-42)) (X at position 7 is L-isoAsp); assay: dot blot
# T4 construct: Aggregated amyloid fibrils; dot blot lanes 8 and 9 (with m11); also called isoD7-AB; aggregated Aβ1-42 (verified isoD content)
# T4 sequence (peptide, as listed by the source): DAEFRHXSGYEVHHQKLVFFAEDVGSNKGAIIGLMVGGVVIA
# Procedure: as §2
# [5] = target: T1, isoD38-TTR(35-43)-PEG-Biotin; assay: SPR, BIAcore 3000, 25 °C; antibody captured on goat anti-mouse IgG (CM5 chip), peptide injected (multicycle kinetics, 10 nM to 100 µM)
# Procedure: as §1
# TTR(35-43)-PEG-Biotin [6] = target: T2, TTR(35-43)-PEG-Biotin; assay: SPR, BIAcore 3000, 25 °C; antibody captured on goat anti-mouse IgG (CM5 chip), peptide injected (multicycle kinetics, 1 µM to 200 µM)
# Procedure: as §1
Binder,Kd [1],Kd (TTR(35-43)-PEG-Biotin [2]),binding result [3],binding result [4],Kd [5],Kd (TTR(35-43)-PEG-Biotin [6])
B1,1.55 nM,719 nM,no binding (tested: 0.5 µg peptide spotted; antibody 1 µg/mL),no binding (tested: 0.5 µg peptide spotted; antibody 1 µg/mL),,
B2,,,no binding (tested: 0.5 µg peptide spotted; antibody 1 µg/mL),no binding (tested: 0.5 µg peptide spotted; antibody 1 µg/mL),124 nM,29000 nM
